Data on five molecules can be found in paper PMC2173804.

B1: mut1 (dsDNA)
DNA 1: CTAGCTAGGGTACCCACGCCG
DNA 2: CTAGCGGCGTGGGTACCCTAG
B2: FasL (dsDNA)
DNA 1: CTAGAATAAGTAAATAAATAA
DNA 2: CTAGTTATTTATTTACTTATT
B3: bim1 (dsDNA)
DNA 1: CTAGCTAGGGTAAACACGCCG
DNA 2: CTAGCGGCGTGTTTACCCTAG
B4: mut2 (dsDNA)
DNA 1: CTAGGCAAGGTAAGTTCTCCT
DNA 2: CTAGAGGAGAACTTACCTTGC
B5: bim2 (dsDNA)
DNA 1: CTAGGCAAGGTAAACACTCCT
DNA 2: CTAGAGGAGTGTTTACCTTGC

Sequence of GST-FKH (FKHRL1/FOXO3a DNA-binding domain) (O43524 141-268 S253A): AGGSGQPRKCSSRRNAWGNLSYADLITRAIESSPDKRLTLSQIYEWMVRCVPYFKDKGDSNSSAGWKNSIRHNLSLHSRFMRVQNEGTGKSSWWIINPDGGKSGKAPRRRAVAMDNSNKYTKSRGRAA

This data set addresses GST-FKH (FKHRL1/FOXO3a DNA-binding domain) (UniProt O43524 141-268, S253A). Briefly: EMSA.
With B1, the binding result is “no binding”. Next, B2: “binds”. With B3, the binding result was “binds”.

Consider B4, for which the binding result is recorded as “no binding”. Regarding B5, the binding result was “binds”.
